Assay results from PMC12302927.

Experiments:
Experiment in all cases: co-IP; 293T cells co-transfected with HA-tagged STAT1 (WT, K193R, K584R) and FLAG-p300; band intensities quantified; which protein was precipitated not given
[1] = target: HA-tagged STAT1 K193R (UniProt P42224)
[2] = target: HA-tagged STAT1 (WT) (UniProt P42224)
[3] = target: HA-tagged STAT1 K584R (UniProt P42224)

**Q.** With FLAG-p300, Q09472 1-2414 as the substance, how does the relative co-IP band intensity [1] read?
**A.** 0.194

**Q.** What about the relative co-IP band intensity [2] of the same substance?
**A.** 0.202

**Q.** And the relative co-IP band intensity [3]?
**A.** 0.239
